Measured values reported in US20200299400A1.

Target: human CD73 on human cell lines (human) (UniProt P21589)
Assay: cell-based or functional assay

human CD73 on human cell lines (human), sequence (P21589 27-549): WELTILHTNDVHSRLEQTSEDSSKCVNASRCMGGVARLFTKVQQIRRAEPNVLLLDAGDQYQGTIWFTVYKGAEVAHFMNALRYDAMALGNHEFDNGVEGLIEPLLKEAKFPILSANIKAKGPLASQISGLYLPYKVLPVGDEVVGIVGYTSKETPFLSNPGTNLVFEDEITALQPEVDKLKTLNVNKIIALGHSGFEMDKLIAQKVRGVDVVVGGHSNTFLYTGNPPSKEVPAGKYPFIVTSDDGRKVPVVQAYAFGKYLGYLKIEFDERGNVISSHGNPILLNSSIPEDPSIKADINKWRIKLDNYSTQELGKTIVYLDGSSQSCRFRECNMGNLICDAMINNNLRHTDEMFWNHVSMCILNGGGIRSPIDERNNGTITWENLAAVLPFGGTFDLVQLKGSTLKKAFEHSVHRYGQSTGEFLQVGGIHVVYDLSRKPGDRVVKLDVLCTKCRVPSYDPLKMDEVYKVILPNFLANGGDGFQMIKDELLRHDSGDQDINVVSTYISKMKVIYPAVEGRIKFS

B1: mAb-CD73.4-IgG2 (antibody, V domains shown, not shown: a dimerising Fc or GST)
VH: QVQLVESGGGVVQPGRSLRLSCAASGFTFSNYGMHWVRQAPGKGLEWVAVILYDGSNKYYPDSVKGRFTISRDNSKNTLYLQMNSLRAEDTAVYYCARGGSSWYPDSFDIWGQGTMVTVSS
VL: DIQMTQSPSSLSASVGDRVTITCRASQGISSWLAWYQQKPEKAPKSLIYAASSLQSGVPSRFSGSGSGTDFTLTISSLQPEDFATYYCQQYNSYPLTFGGGTKVEIKR
Binder B1 has an internalization T1/2, Calu6 of 36 min, an internalization T1/2, NCI-H292 of 16.6 min and an internalization Ymax, Calu6 of 75.6%. For the same binder, the internalization Ymax, NCI-H292 was 78.4%.
